Earlier results in paper PMC9412859 (World Journal of Diabetes, 2022).

Settings: rats, oral

| Substance | time of maximum plasma concentration (enteric-coated capsule containing pH responsive NPs) | plasma exenatide level versus subcutaneous exenatide solution (functionalised NPs) |
| --- | --- | --- |
| Exendin-4: GLP1-RA, here released from enteric-coated capsule containing pH responsive NPs | 5 h |  |
| exenatide: GLP1-RA, here delivered orally in functionalised nanoparticles |  | not significantly different |
